Measurements reported in US20210322559A1.
Non-standard residues stand in square brackets, D forms with d. No end group written: not given here. Hyp = O=C(O)[C@@H]1C[C@@H](O)CN1

What was measured:
[1] = target: porcine gelatin (denatured collagen) (porcine); test: fluorescence in crosslinked gelatin film after 6 washes at 4 °C (FIG. 6A)
[2] = target: porcine gelatin (denatured collagen) (porcine); test: fluorescence; CHP 15 µM premixed into 10% porcine gelatin, 5 washes at 4 °C (FIG. 6B)

Row | percent removal after washes at 4 °C [1] [%] | percent removal after washes at 4 °C [2] [%] | Binder
1 | > 95 | > 95 | PG[Hyp]PP[Hyp]GGP[Hyp][Hyp]G[Hyp]G[Hyp]PGPGGGKGGGPGP[Hyp]G[Hyp]G[Hyp][Hyp]PGG[Hyp]PP[Hyp]GP (also: branched dimer: two arms grown from both amines of Lys22, residues 23-43 are the second arm written reversed, G3K with carboxyfluorescein on the C-terminal Lys attached at branch point Lys22) [6r, (PGOPPOGGPOOGOGOPGP-G3)2KG3K^CF]
2 | > 95 | > 95 | PP[Hyp]GGP[Hyp][Hyp]G[Hyp]G[Hyp]PGPGGGKGGGPGP[Hyp]G[Hyp]G[Hyp][Hyp]PGG[Hyp]PP (also: branched dimer: two arms grown from both amines of Lys19, residues 20-37 are the second arm written reversed, G3K with carboxyfluorescein on the C-terminal Lys attached at branch point Lys19) [5r, (PPOGGPOOGOGOPGP-G3)2KG3K^CF]
3 | > 95 | > 95 | 9r, (PGOGPGPOPOGOGPOPGOOPGGOOPPG-G3)2KG3K^CF (also: branched dimer: two arms grown from both amines of Lys31, residues 32-61 are the second arm written reversed, G3K with carboxyfluorescein on the C-terminal Lys attached at branch point Lys31) PG[Hyp]GPGP[Hyp]P[Hyp]G[Hyp]GP[Hyp]PG[Hyp][Hyp]PGG[Hyp][Hyp]PPGGGGKGGGGPP[Hyp][Hyp]GGP[Hyp][Hyp]GP[Hyp]PG[Hyp]G[Hyp]P[Hyp]PGPG[Hyp]GP
